Key:
fibronectin [1] = target: fibronectin (UniProt P02751); test: ELISA; wells coated with 10 μg/ml purified fibronectin in 0.05 M Na2CO3 pH 9.0; 0.03125-2 μM GST or GST-tagged OspC variants, 1 hr at ambient temperature; goat anti-GST and HRP-conjugated anti-goat IgG; estimated KD from a fit of OD405
fibronectin [2] = target: fibronectin (UniProt P02751); test: SPR; Biacore 3000; fibronectin on a CM5 chip; 0-500 nM untagged OspC variants injected at 10 μl/min, 25°C; 1:1 Langmuir model; KD from the average koff divided by kon of each run

Sequence of fibronectin (P02751 32-2477): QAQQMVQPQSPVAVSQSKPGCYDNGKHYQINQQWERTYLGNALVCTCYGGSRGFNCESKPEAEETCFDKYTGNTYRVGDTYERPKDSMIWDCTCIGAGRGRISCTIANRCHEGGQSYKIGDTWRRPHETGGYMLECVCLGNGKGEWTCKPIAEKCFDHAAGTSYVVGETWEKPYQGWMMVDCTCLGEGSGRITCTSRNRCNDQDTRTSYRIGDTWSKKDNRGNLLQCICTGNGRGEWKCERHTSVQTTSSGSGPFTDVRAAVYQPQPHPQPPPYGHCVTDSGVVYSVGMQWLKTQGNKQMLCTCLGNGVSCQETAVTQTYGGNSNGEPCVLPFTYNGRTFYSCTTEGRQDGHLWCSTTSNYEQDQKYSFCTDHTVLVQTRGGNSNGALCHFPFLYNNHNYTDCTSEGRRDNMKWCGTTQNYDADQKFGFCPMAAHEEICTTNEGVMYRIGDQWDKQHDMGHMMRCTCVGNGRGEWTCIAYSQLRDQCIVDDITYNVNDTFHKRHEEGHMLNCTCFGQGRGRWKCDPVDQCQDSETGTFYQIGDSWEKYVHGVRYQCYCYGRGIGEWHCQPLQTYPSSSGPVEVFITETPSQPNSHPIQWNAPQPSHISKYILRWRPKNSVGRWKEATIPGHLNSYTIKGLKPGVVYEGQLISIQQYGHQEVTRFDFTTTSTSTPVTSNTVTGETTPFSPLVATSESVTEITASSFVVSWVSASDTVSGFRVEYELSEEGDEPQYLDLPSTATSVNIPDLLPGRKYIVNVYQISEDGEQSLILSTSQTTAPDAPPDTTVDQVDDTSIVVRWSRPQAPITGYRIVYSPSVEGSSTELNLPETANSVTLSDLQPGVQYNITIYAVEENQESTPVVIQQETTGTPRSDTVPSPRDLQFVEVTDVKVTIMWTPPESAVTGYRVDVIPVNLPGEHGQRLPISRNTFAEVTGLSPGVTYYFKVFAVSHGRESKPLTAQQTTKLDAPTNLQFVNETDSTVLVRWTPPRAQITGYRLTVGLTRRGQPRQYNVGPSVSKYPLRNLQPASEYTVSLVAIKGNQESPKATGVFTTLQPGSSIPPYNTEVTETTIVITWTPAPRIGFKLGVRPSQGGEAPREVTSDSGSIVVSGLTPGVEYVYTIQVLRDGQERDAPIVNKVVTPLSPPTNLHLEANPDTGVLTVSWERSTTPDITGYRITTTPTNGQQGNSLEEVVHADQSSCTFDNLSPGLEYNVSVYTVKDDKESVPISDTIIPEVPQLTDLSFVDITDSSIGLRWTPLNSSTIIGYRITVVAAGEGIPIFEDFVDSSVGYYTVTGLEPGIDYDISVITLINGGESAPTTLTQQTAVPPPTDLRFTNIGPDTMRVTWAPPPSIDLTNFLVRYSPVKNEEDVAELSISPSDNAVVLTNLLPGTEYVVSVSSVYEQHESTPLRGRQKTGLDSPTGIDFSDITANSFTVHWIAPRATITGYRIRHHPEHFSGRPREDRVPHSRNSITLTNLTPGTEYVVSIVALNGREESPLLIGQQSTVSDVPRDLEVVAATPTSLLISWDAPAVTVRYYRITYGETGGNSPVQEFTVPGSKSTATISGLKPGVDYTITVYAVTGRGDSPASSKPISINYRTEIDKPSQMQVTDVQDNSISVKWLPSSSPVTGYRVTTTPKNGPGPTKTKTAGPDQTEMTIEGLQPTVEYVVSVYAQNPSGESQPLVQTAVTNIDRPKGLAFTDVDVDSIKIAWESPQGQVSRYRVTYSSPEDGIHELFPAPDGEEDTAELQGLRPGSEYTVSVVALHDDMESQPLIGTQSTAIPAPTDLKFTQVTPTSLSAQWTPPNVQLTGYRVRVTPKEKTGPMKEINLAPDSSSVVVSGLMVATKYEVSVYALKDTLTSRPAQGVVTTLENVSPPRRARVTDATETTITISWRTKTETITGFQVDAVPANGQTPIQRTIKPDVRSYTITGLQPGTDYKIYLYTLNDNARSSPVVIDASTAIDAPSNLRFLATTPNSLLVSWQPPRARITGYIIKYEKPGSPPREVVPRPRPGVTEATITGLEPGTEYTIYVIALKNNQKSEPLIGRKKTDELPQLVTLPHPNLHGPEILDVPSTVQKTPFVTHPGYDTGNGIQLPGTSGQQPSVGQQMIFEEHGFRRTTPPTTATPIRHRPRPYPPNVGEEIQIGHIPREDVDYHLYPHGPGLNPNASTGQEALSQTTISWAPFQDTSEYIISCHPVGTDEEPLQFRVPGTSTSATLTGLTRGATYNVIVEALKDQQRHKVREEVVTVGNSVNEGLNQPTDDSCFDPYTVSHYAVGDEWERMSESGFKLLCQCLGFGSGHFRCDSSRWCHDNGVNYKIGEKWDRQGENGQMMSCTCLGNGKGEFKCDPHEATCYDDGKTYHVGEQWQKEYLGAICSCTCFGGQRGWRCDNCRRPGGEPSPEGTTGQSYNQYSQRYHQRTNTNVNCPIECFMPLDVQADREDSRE

Substance	Kd (fibronectin [1]) [nM]	Kd (fibronectin [2]) [nM]	koff (fibronectin [2]) [s⁻¹]	kon (fibronectin [2]) [M⁻¹ s⁻¹]
GST-OspC_(N40-D10/E9) (natural protein; other documents disagree on this pair)	350			
OspC297, untagged (natural protein)		1750	0.06	36800

From publication PMC7255614
